First the molecules themselves.
B1: unnamed (protein)
chain: MRPPQCLLHTPSLASPLLLLLLWLLGGGVGAEGREDAELLVTVRGGRLRGIRLKTPGGPVSAFLGIPFAEPPMGPRRFLPPEPKQPWSGVVDATTFQSVCYQYVDTLYPGFEGTEMWNPNRELSEDCLYLNVWTPYPRPTSPTPVLVWIYGGGFASGASSLDVYDGRFLVQAERTVLVSMNYRVGAFGFLALPGSREAPGNVGLLDQRLALQWVQENVAAFGGDPTSVTLFGESAGAASVGMHLLSPPSRGLFHRAVLQSGAPNGPWATVGMGEARRRATQLAHLVGCPPGGTGGNDTELVACLRTRPAQVLVNHEWHVLPQESVFRFSFVPVVDGDFLSDTPEALINAGDFHGLQVLVGVVKDEGSYFLVYGAPGFSKDNESLISRAEFLAGVRVGVPQVSDLAAEAVVLHYTDWLHPEDPARLREALSDVVGDHNVVCPVAQLAGRLAAQGARVYAYVFEHRASTLSWPLWMGVPHGYEIEFIFGIPLDPSRNYTAEEKIFAQRLMRYWANFARTGDPNEPRDPKAPQWPPYTAGAQQYVSLDLRPLEVRRGLRAQACAFWNRFLPKLLSATDTLDEAERQWKAEFHRWSSYMVHWKNQFDHYSKQDRCSDL
B2: unnamed (protein)
chain: B1 chain with E316A, W317A
B3: unnamed (protein)
chain: B1 chain with A155Y
B4: unnamed (protein)
chain: B1 chain with A155Y, F369A

Numbering of substitutions follows the chain as printed.

Substrate in this series: Acetylcholine
Particulars: pH 8; 27 °C.
On to B1, for which the Km was 250 µM, the kcat was found to be 4170 s⁻¹ and the kcat/Km was determined as 1.67e+07 s⁻¹ M⁻¹.
In the same order, the values of B2 are 280 µM, 2330 s⁻¹ and 8.33e+06 s⁻¹ M⁻¹.
Turning to B3, the Km was 120 µM, the kcat was 7000 s⁻¹ and the kcat/Km is 5.83e+07 s⁻¹ M⁻¹.
On the same counts, the results for B4 are 140 µM, 2830 s⁻¹ and 2.02e+07 s⁻¹ M⁻¹.

As a reminder, the Km is the concentration of substrate that gives half-maximal velocity. A word on the kcat: it is the number of substrate molecules converted per active site and unit of time at saturation. By kcat/Km is commonly meant the turnover number divided by the Michaelis constant.

The values are drawn from the PETadex activity labels (doi:10.1016/s0021-9258(17)37371-4).
